According to the DeepSol protein solubility set:

Assay: soluble on expression in E. coli; label from the status in PepcDB or PDB records

Soluble on expression in E. coli, not soluble:
MGSDKIHHHHHHMSNFNFDFAENDFGPLAAKMRPTSLEQYFGQSHLIGEGKPLRKAIQAGHIYSMIFWGPPGTGKTTLAEIIAQRINAEVERISAVTSGIKEIREAIDRAKQNRLADRKTILFVDEVHRFNKSQQDAFLPHIEDGTVIFIGATTENPSFELNNALLSRARVYVLKSLTTAEIEQVLQQAVEDPKRGLGKERLILEENLLQVLAEYVNGDARLALNCLELMVDMADETENGKKIDRTLLKEVLGERQARFDKQGDRFYDLISALHKSVRGSAPDAALYWYARILTAGGDPLYVARRLLAIASEDVGNADPRAMQVALAAWDCFSRVGAYEGERAIAQAIIYLSVAPKSNAVYTAFNTAKQQAKDLPDYDVPPHLRNAPTNLMKELGYGTEYRYAHDEPNAYAAGENYFPPELKDTQYYFPTNRGMEIQIKEKLERLREQDKSAVKKRYK
MGSDKIHHHHHHMSNLQKVIVFGASGFLGEHIIKSLISENWDVYAAVRTKPESSTDGFNQTQVTYYEGDLEDQKYIQDAIAGMDAIIFSAGCTWKSDLEISEYYRRNVQITKNFFTALGDRPNVRIVYTSSMSVIAGSKSDYIFFEDSDRSQVSQNQLSPYDLAKIECEQIALDYAQRGNNLVILNPGNMLGPGVFNHSKITTSILVLWFCQKQFPFYINGGHSYCDVRDVAKAHVAALTRGRSGERYIVAGDNLDMASISSLLVKMTGFKMPQQLPASGVYLLSLLLESLSLLSFRLFKNPYHPDFVKSFALHYYANSQKAIKELAYNITPIETTLIDTIKYFGKRELLSEDLNFFALMTHSNIQSLIYLRQLASQHTFSQFLLSKISQIYGICQSNLSLNNVLDNLVNHSKFNIKTGKFQPDKTKCQEDLKSINQLFEYLYFASNDFLSEVI
MGSDKIHHHHHHMSNLSLDFSHNEFQPLAARMRPATLAQYIGQQHLLGAGKPLPRAIEAGQLHSMILWGPPGTGKTTLAELIGHYGQADVERISAVTSGIKEIREAIERARQNRNAGRRTILFVDEVHRFNKSQQDAFLPHIEDGTITFIGATTENPSFELNSALLSRARVYLLKALMAEDIEQVLLQAMSDSERGYGGLNIVLPAETGRMLAELVNGDARRALNSLEMMADMAEIDAQGMRILTPALLNEIAGERSARFDNKGDRYYDLISALHKSVRGSAPDAALYWYARIITAGGDPLYVARRLLAIASEDVGNADPRAMQVAISAWDCFTRVGPAEGERAIAQAIVYLACAPKSNAVYSAFKAAMQDAREKPDYDVPEHLCNAPTRLMKEMGLGAEYRYAHNEPNAYAAGESYFPPEMADTHYYAPTSRGLEGKIGEKLAWLATQDQNSPTKRYR
MGSDKIHHHHHHMSNQFMFADETSQQTTKLPTEYWKILIVDDEPEVHAVTKLALNDFNFLGRGLKFYSAFSGEEAKRLIDEHPDAAILLLDVVMETDDAGLQVARYIREEADNHFTRIILRTGQPGQAPERTVIVNYDINDYKSKTELTAQKLFTAVMSSLRSYRDIMSIDQSRHGLEKIIAASANLYALQPMNSFVDGLVQQLSWVIGGAKQTLYATSNEDGSSYKVLAAHGEDSGVCVGQTLRSVIPSKALAELEHVIANHGSYYGDDFVLLYCRSHCRSHGSVLFIGGLSRALTADDHHVLQLFSENVQLAQDNVVCLEDSDQFLARLADQLMLHHASHFNGILEQNSEVRLAYAVAQKVAAEDAETTALAWSLFAQARPLLNCASDAAAAVETTCQQRVARSLRALGHGEHEATQNAHRALIERLERWDGLGLPEGKQGSDIAISTQVLLLTEQLLDWWESGISDSDIAVRLKDERGRYYSPKFLDVVIKSLPELRTI
MGSDKIHHHHHHMSNRLSVVMIAKNAADLLPDCLGSVSWADEIIVLDSGSTDNTVELARRLGAQVYTHTDWRGYGIQRQRAQDYATGDWVLMIDTDERVTPELRQAILKVLDAPQRGAIYSIARRNYFLGRFMRHSGWYPDRVLRLYERARYRYNDNLVHESLDSLGAEVIPLTGDLLHLTCRDFAGFQQKQLAYAAAWALERHQKGKKTSMAGIFSHTLGAFLKTLLLRGGVLDGKQGWLLAMVNAQYTFTKYTELWALSHGYSEKESS
MGSDKIHHHHHHMSQTMMLIEKSSHCVSWYDTETGALQGRLALPDFPHEFVVDQDNHYAYVGHYGVQNSGVEGTDGRSVIVIDIRKQEIVHRYDLGEHARPHGISLDAQGRLYVLSEWSGHLLVKENPRAFDQGWDHVTPVGGEKPHLFALTGDGRTAYSMNLNSGDVTVLDPYDPTRIPVSIKTGEKPEGRCLREEAGVLYTSQRISNTVAVVDTKTLQVQRIFPTPQDPCRVYYDAKRNRLVTMNHHGGSFSVFDEATGEMLHEQKTPANPLALCIDDEAAYAYIAIDCEQVQRFNLDTFEVVQTFDTGKEPDVMVILPEGYSKHWEVNA
MGSDKIHHHHHHMSRILITCAITGSIHTPSMSPYLPVTADEITQQAVDAADAGAAILHLHARDPETGRPSAEIGHFMGFLPRIKQSCEAVLNLSTGGSAVMTLDQRLAAPKQAAPEMCSLNMGTMNFALYPAADRISDWKHDWEEPFLRGSDDLVFKNTPRDMALILGEMGTKRGARFEFEVYDVGHLYMLRHFVDRGLVQGPLFIQFVFGVLGGIGPDPENLMHMKTVADKLFGQDYLFSVLAAGRHQIPLVTMAAAMGGHVRVGLEDSLMISRGVLARSNAEQVRKIRRIVEDLGREVASPGEARAMLGLKGADRTAF
MGSDKIHHHHHHMSRRQHFAKVTPLLHRHGDYFVFIGFDYGTANCSVAVMRDGKPHLLKMENDSTLLPSMLCAPTREAVSEWLYRHHDVPADDDETQALLRRAIRYNREEDIDVTAKSVQFGLSSLAQYIDDPEEVWFVKSPKSFLGASGLKPQQVALFEDLVCAMMLHIRQQAQAQLPEAITQAVIGRPINFQGLGGDEANTQAQGILERAAKRAGFRDVVFQYEPVAAGLDYEATLQEEKRVLVVDIGGGTTDCSLLLMGPQWRSRLDREASLLGHSGCRIGGNDLDIALAFKNLMPLLGMGGETEKGIALPILPWWNAVAINDVPAQSDFYSSANGRLLNDLVRDAREPEKVALLQKVWRQRLSYRLVRSAEECKIALSSVAETRASLPFISNELATLISQRGLESALSQPLTRILEQVQLALDNAQEKPDVIYLTGGSARSPLIKKALAEQLPGIPIAGGDDFGSVTAGLARWAEVVFR
MGSDKIHHHHHHMSRVGIPRSLFYYYYYPLWKSFFSDLGVEILTSAPSNRHTVERGIELAVDETCFPIKVYLGHVAELCREELDYLFIPRLVSVEARSYICPKFMGLPDIVRALIKETPPLIDITVDLSRDEKCFKKDIIRVGRLFTRQASRIQLAYQHGCEELRLCRSLASQGFTMEEAIKIWEGGAMEAEPETDLNIGVLGHGYSLYDERISMNLVKRLRAMNCKVLLPEHLGSEVVEAEAATVPKRVFWTLGRKMLGSALHLSQREDVDGIIYLACFGCGPDSLIGEIIERKVRDCKPFILLTVDEHSGEAGIITRLEAFCDMLRRRRNCGSESKLSPYGVSLHSFENTV
MGSDKIHHHHHHMSSDVQKGDNLETPGARDLLLQTASNIMREGDVVDISLSELSLRSGLNSALVKYYFGNKAGLLKALLDRDMENIVKSVDALLAKDDMSPEAKLRRHISKCIDTYYDYPYLNRLLMRLVRDSDEAEAKRIADQYLLPLHRAYNRFIGEGVKAGVFRPINPQLFYFTVTGAADRFFSARLVLKHCFDQDTLTEQLRDSYREHTVDFIMAGILAH
MGSDKIHHHHHHMSSLQILQGTFRLSDTKTLQLPQLTLNAGDSWAFVGSNGSGKSALARALAGELPLLKGERQSQFSHITRLSFEQLQKLVSDEWQRNNTDMLGPGEDDTGRTTAEIIQDEVKDAPRCMQLAQQFGITALLDRRFKYLSTGETRKTLLCQALMSEPDLLILDEPFDGLDVASRQQLAERLASLHQSGITLVLVLNRFDEIPEFVQFAGVLADCTLAETGAKEELLQQALVAQLAHSEQLEGVQLPEPDEPSARHALPANEPRIVLNNGVVSYNDRPILNNLSWQVNPGEHWQIVGPNGAGKSTLLSLVTGDHPQGYSNDLTLFGRRRGSGETIWDIKKHIGYVSSSLHLDYRVSTTVRNVILSGYFDSIGIYQAVSDRQQKLVQQWLDILGIDKRTADAPFHSLSWGQQRLALIVRALVKHPTLLILDEPLQGLDPLNRQLIRRFVDVLISEGETQLLFVSHHAEDAPACITHRLEFVPDGGLYRYVLTKIY
MGSDKIHHHHHHMSSVSLQDFDAERIGLFHEDIKRKFDELKSKNLKLDLTRGKPSSEQLDFADELLALPGKGDFKAADGTDVRNYGGLDGIVDIRQIWADLLGVPVEQVLAGDASSLNIMFDVISWSYIFGNNDSVQPWSKEETVKWICPVPGYDRHFSITERFGFEMISVPMNEDGPDMDAVEELVKNPQVKGMWVVPVFSNPTGFTVTEDVAKRLSAMETAAPDFRVVWDNAYAVHTLTDEFPEVIDIVGLGEAAGNPNRFWAFTSTSKITLAGAGVSFFLTSAENRKWYTGHAGIRGIGPNKVNQLAHARYFGDAEGVRAVMRKHAASLAPKFNKVLEILDSRLAEYGVAQWTVPAGGYFISLDVVPGTASRVAELAKEAGIALTGAGSSYPLRQDPENKNLRLAPSLPPVEELEVAMDGVATCVLLAAAEHYAN
MGSDKIHHHHHHMSSYVVSQEDVKNFLNLPSMNDQEGISFAYATDPDALAKLIPAPLKLVAPVVCGYVVHMGKPSFGGPYLEQTLFALVSYKDKMMGSYPLTLLLHGPGAEAGLVAGREGAGIPKKLADHIELRRNDNSASATVERHGKTLLSVDWEAGDVNDPSILQTFGSQFALNKESEMNSFFFTHDLVQDKQGANHFENVELVATQMKSLADRVEPGKLSIQLASTEDDPFGELPVLKPLGAMWYHFATSTMFNTLHLEQVDADKTAPYLITGRYDRSMMNPLATTYII
MGSDKIHHHHHHMSTDFKKRNVFFSPPDMTETETRLVVEAIMSGWITTGPKTKEFEKKISAYVHTDKTVCLNSATAAMELALRLIGVGPEDEVIVPAYTYTASASVTQHVGCHLVMVDSNEENQQMDLQKLAEAITERTKVIVPVDLGGVVCEYDKILEILEQKKGLFRPTNELQKKIGRVIISSDCAHAFGSEWKGKMAGEIGDFSSFSFHAVKNLTTAEGGALTWHLPFGNEPIIMDIDTTIPVFEGETWNEFLYRKCQLFSLHGQNKDALAKTKLGSWEYDVIGPWYKCNMTDIMASLGLAQMERYDTMLQKRQKYVERFNEAFKELNVAVLDHKGAEHCSSHHLYIIRLLGKTREQVNDVITKMAERGIATNVHYKPLPMMTAYKTLGFDIKNFPNAYKMFENTMTLPLNTKMTEEDVEYVIENFVDIVKSL
MGSDKIHHHHHHMSTFIFPGDSFPVDPTTPVKLGPGIYCDPNTQEIRPVNTGVLHVSAKGKSGVQTAYIDYSSKRYIPSVNDFVIGVIIGTFSDSYKVSLQNFSSSVSLSYMAFPNASKKNRPTLQVGDLVYARVCTAEKELEAEIECFDSTTGRDAGFGILEDGMIIDVNFNFARQLLFNNDFPLLKVLAAHTKFEVAIGLNGKIWVKCEELSNTLACYRTIMECCQKNDTAAFKDIAKRQFKEILTVKEE
MGSDKIHHHHHHMSTILLPKTQHLVVFQEVIRSGSIGSAAKELGLTQPAVSKIINDIEDYFGVELVVRKNTGVTLTPAGQLLLSRSESITREMKNMVNEISGMSSEAVVEVSFGFPSLIGFTFMSGMINKFKEVFPKAQVSMYEAQLSSFLPAIRDGRLDFAIGTLSAEMKLQDLHVEPLFESEFVLVASKSRTCTGTTTLESLKNEQWVLPQTNMGYYSELLTTLQRNGISIENIVKTDSVVTIYNLVLNADFLTVIPCDMTSPFGSNQFITIPVEETLPVAQYAAVWSKNYRIKKAASVLVELAKEYSSYNGCRRRQLIEVG
